Measured values as given in patent US20190381169A1, “PHARMACEUTICAL COMBINATIONS FOR IMMUNOTHERAPY” (Technische Universitat Dresden, priority 2014, published 2019).
“Also recorded” adds a separate entry of the source.

Assays:
p75^NTR [1] = target: T1, p75^NTR (Homo sapiens, UniProt P08138); assay: IL-6 produced by anti-FcεRIα activated human PDC (ELISA); assay type: cell-based; design: nerve growth factor receptor p75^NTR, which is expressed by human and murine plasmacytoid dendritic cells (PDC); endogenous in cells; host or cells: primary human plasmacytoid dendritic cells (BDCA-4+ selection) from buffy coats or from peripheral blood of allergic donors; conditions: anti-FcεRIα-FITC activated PDC with NGF 25 ng/ml vs without NGF; p=0.0066
T1 sequence (P08138 29-427): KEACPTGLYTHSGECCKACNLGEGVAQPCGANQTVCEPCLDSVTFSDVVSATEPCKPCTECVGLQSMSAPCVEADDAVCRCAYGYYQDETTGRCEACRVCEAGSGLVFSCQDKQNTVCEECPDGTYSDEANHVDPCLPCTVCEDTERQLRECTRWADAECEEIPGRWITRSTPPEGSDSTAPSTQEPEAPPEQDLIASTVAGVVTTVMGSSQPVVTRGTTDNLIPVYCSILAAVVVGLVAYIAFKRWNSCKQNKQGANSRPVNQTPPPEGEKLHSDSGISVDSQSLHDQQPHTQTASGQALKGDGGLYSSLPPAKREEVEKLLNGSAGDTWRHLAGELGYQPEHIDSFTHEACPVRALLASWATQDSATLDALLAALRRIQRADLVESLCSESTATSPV
Procedure: PDC isolated from peripheral blood were taken in RPMI 1640 medium (PAA) with penicillin G (100 U/ml), streptomycin ([…]), L-glutamine (2 mM), 10% heat inactivated FBS and IL-3 (R&D system) at 10 ng/ml. 2×10^5 cells were seeded per well in 200 μl medium in U-shaped bottom 96-well plate and incubated at 5% CO2 and 37° C. For IL-6 generation, mouse anti human FcεRI alpha-FITC (eBioscience) was added at 250 ng/ml to designated wells. p75^NTR blocking peptide TAT-Pep5 (Calbiochem) was employed at 100 nM to designated wells. NGF (R&D Systems) was added at concentration of 25 ng/ml to specified wells. All components were added following the sequence mentioned After 14 hour's stimulation the plate was centrifuged (270 g for 5 minutes). Supernatant was analyzed for IL-6 by ELISA (Bender MedSystems).
IL-6 ELISA was carried out following manufacturer's specifications with few modifications. […] Absorbance of whole plate was read on spectrophotometer at 450 nm as primary wave length and 620 nm as reference wave length. […]
We activated peripheral blood purified PDC by cross linking FcεRIα with anti-FcεRIα-FITC in the presence and absence of NGF at 25 ng/ml in-vitro. Supernatant was harvested after 12 hrs of activation and amount of IL-6 secreted was determined by ELISA. We have analysed 18 buffy coat samples.

p75^NTR [2] = target: T2, p75^NTR (Mus musculus, UniProt Q9Z0W1); assay: Proliferation and cytokine secretion of OT-II CD4+ or OT-I CD8+ T-cells co-cultured with murine PDCs; assay type: cell-based
T2 construct: endogenous in cells; host or cells: murine plasmacytoid dendritic cells differentiated in vitro from bone marrow with Flt3-L (p75NTR+/+ wildtype; p75NTR-/- as control)
T2 sequence (Q9Z0W1 32-427): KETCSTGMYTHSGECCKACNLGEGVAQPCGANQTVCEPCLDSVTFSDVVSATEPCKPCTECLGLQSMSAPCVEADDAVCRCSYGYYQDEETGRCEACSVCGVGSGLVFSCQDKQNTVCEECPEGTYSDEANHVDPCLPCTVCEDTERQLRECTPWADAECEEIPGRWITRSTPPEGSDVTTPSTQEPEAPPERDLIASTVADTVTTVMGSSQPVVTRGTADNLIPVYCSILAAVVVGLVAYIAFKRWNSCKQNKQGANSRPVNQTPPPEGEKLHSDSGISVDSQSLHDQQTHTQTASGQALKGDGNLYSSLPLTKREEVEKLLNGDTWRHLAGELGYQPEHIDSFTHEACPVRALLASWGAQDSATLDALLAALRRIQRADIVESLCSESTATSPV
Source text: Murine T-cells were isolated either from OT-II mouse strain expressing ovalbumin peptide specific T-cell receptors on CD4+ T-cells or from OT-I mouse strain expressing ovalbumin peptide specific T-cell receptors on CD8+CTLs using the CD8+ T-cell isolation kit (Miltenyi Biotec).

p75^NTR [3] = target: T1, p75^NTR; assay: Th2 prone GvHD xenotransplantation model: NSG mice given human autologous T-cells and PDCs
Procedure: Recipient mice from NSG mouse strain were pre-condition by irradiation with 3 Gy 24 hours before transplantation of human cells
For scoring of GvHD incidence and survival transplanted mice were monitored daily for weight, behaviour, skin, activity, fur and other parameters.
Human, autologous T-cells and PDCs were stimulated either with CpG B or not. Overnight co-cultured was done in the absence or presence of NGF. One day later human cells were transplanted into irradiated NSG mice by i.v. injection.

[4] = co-culture with PDCs, NGF present
[5] = co-culture with p75^NTR+/+ PDCs, NGF added, compared to p75^NTR−/− PDCs

In the case of “NGF: Nerve growth factor, best characterized neurotrophin; natural p75^NTR agonist (R&D Systems)”, the “production of IL-6” value (p75^NTR [1]) is reported as “significantly increased”, the “cytokine secretion of CD8+ T-cells (CTLs) from OT-I strain” value (p75^NTR [2]; [4]) is reported as “secreted less cytokines” and the “proliferation of CD8+ T-cells (CTLs) from OT-I strain” value (p75^NTR [2]; [4]) is reported as “reduced proliferation”. For the same substance, the “cytokine secretion of CD4+ T-cells from OT-II strain” value (p75^NTR [2]; [5]) was “increased”, the “proliferation of CD4+ T-cells from OT-II strain” value (p75^NTR [2]; [5]) was “increased” and the “mortality (survival)” value (p75^NTR [3]; CpG B stimulated PDCs co-cultured in presence of NGF before transplantation) was “significantly increased mortality”. The “severity of GvHD (cumulative GvHD incidence)” value (p75^NTR [3]; CpG B stimulated PDCs co-cultured with T-cells in presence of NGF before i.v. transplantation, 12 weeks) was “increased severity of GvHD” and the “cumulative GvHD incidence or survival without CpG B” value (p75^NTR [3]; PDCs cultured without TLR stimulating CpG B, data not shown) was “no NGF dependent effect; also recorded: abolished the accelerating NGF effect”.
